Data from the DeepSol protein solubility set.

Assay: soluble on expression in E. coli; label from the status in PepcDB or PDB records

Row | Sequence | soluble on expression in E. coli
1 | MKNLTTIKQTNKNVKQERRKKYADLAIQGTNNSSIASKRSVELLYLPKLSSANNFQMDKNNKLLEYFKFFVPKKIKRSPCINRGYWLRLFAIRSRLNSIIEQTPQDKKIVVVNLGCGYDPLPFQLLDTNNIQSQQYHDRVSFIDIDYSDLLKIKIELIKTIPELSKIIGLSEDKDYVDDSNVDFLTTPKYLARPCDLNDSKMFSTLLNECQLYDPNVVKVFVAEVSLAYMKPERSDSIIEATSKMENSHFIILEQLIPKGPFEPFSKQMLAHFKRNDSPLQSVLKYNTIESQVQRFNKLGFAYVNVGDMFQLWESADEATKKELLKVEPFDELEEFHLFCHHYVLCHATNYKEFAFTQGFLFDRSISEINLTVDEDYQLLECECPINRKFGDVDVAGNDVFYMGGSNPYRVNEILQLSIHYDKIDMKNIEVSSSEVPVARMCHTFTTISRNNQLLLIGGRKAPHQGLSDNWIFDMKTREWSMIKSLSHTRFRHSACSLPDGNVLILGGVTEGPAMLLYNVTEEIFKDVTPKDEFFQNSLVSAGLEFDPVSKQGIILGGGFMDQTTVSDKAIIFKYDAENATEPITVIKKLQHPLFQRYGSQIKYITPRKLLIVGGTSPSGLFDRTNSIISLDPLSETLTSIPISRRIWEDHSLMLAGFSLVSTSMGTIHIIGGGATCYGFGSVTNVGLKLIAIAK | soluble
2 | MGSDKIHHHHHHMSSEIVIRVKNLSKCFNIYDQPRDRLKQAILPRLQRLFGRPQKSYHKEFWALRNADFEIRRGETVGIIGRNGSGKSTLLQLLCGTLTPTHGDIEVTGKVAALLELGAGFNPEFTGRENVFLSGSFYGLTREQVQERFDRIAAFADIGDHIEQPVKTYSSGMFVRLAFAVIAHVDADILVIDEALSVGDAVFTQKCMRFIRSFQEKGTLLFVSHDMQSVVNLCRNAIWLNAGETRMKGTSKNVSEAYLKYTLQEVYGEEAILLSAAPKESTLDAPMFEEAGPPMLDYEAVASVSSNLFDAKGWKTGDAEIEAVQLESLTGENDGILRGGELVRMVVRARAHQPLERPVIGFMVRDRLGQNLFGENTLSLTALDQARVAAGQMFEGEFVFRLPMLPDGQYSVTASVADGDLHNNVQHHLLHDALIINVASSKVRWGLVGVPFERVTLNCI | not soluble
3 | MVVTRIAPSPTGDPHVGTAYIALFNYAWARRNGGRFIVRIEDTDRARYVPGAEERILAALKWLGLSYDEGPDVAAPTGPYRQSERLPLYQKYAEELLKRGWAYRAFETPEELEQIRKEKGGYDGRARNIPPEEAEERARRGEPHVIRLKVPRPGTTEVKDELRGVVVYDNQEIPDVVLLKSDGYPTYHLANVVDDHLMGVTDVIRAEEWLVSTPIHVLLYRAFGWEAPRFYHMPLLRNPDKTKISKRKSHTSLDWYKAEGFLPEALRNYLCLMGFSMPDGREIFTLEEFIQAFTWERVSLGGPVFDLEKLRWMNGKYIREVLSLEEVAERVKPFLREAGLSWESEAYLRRAVELMRPRFDTLKEFPEKARYLFTEDYPVSEKAQRKLEEGLPLLKELYPRLRAQEEWTEAALEALLRGFAAEKGVKLGQVAQPLRAALTGSLETPGLFEILALLGKERALRRLERALA | soluble
4 | MEDDDSPSSRDLDAQNPYDRLLALDTSTVDPNCNLDSVSAIYLAMKSSKLECVDERGQDSLITSVCMEDEEDEELDEFDPYLFIKNLPNLSSVVPTFRPVLLPKQTRSCPPISLVLDLDETLVHSTLEPCGEVDFTFPVNFNEEEHMVYVRCRPHLKEFMERVSRLFEIIIFTASQSIYAEQLLNVLDPKRKLFRHRVYRDSCVFFDGNYLKDLSVLGRDLSRVIIVDNSPQAFGFQVENGVPIESWFNDPSDKELLHLLPFLESLIGVEDVRPMIAKKFNLREKIDAAVAAPEYPAEAGDPFER | soluble
5 | MRNNGALGLTSKSLKNDKIMNVRTKDRGEPSTVKFSPDGRLCAMQRTPTTADVVFLEKTETSLCLELTVNTKSKEPLLAVEWVTNNQLLLVNNHSAELLYINEDKKSSKLLKATNVNAAWAIYYAPSQLLLIANGQSCSYLQPFVVTHSQFTRMKGFEVDFGGSISKENFLEKDAAIATIYGRVYVLVFKYSNRNATVLDLYELPFDAATGPSFKHSLILGFNGGCGIHVIDNLVVVHHQASQKSLIFDIRVSSPSKSHSPLVVTTIESHPQHQPPPALYTNFWFTFLPDIVIDSSGGVMYSIRLKNEHAQLEIADKQTMLEYLARRSNEKKLFVTTLLACLKARALSLRQIRKVFAMLTGVTGKSKSSFFCNGNFKLRQMANLPICRRCSISANCRFAGNFQIRQISDLAEIFIFSKFSVLPETCNSGKLIICRFAGDEEVSLPESYVANIMLQYLRSLFDAEITPEAYLIEMVVETLAEAGEMSKLQQIVTYRVINDSKPLAFLLLSYEARCSTLFQSGVDILARNKASDEIVEVMLEKKQIVDAFRFIDVRNLNDALIPKVVEAANQHCVRQTRYAIKEHLTEKKAKASLYKSIGDELYTAEEVKGASEEQATCALFEI | not soluble
6 | ELQAIHEKVKTEHAALSTEVVHLRQRTEELLRCNEQQAAELETCKEQLFQSNMERKELHNTVMDLRGNIRVFCRIRPPLESEENRMCCTWTYHDESTVELQSIDAQAKSKMGQQIFSFDQVFHPLSSQSDIFEMVSPLIQSALDGYNICIFAYGQTGSGKTYTMDGVPESVGVIPRTVDLLFDSIRGYRNLGWEYEIKATFLEIYNEVLYDLLSNEQKDMEIRMAKNNKNDIYVSNITEETVLDPNHLRHLMHTAKMNRATASTAGNERSSRSHAVTKLELIGRHAEKQEISVGSINLVDLAGSESPKTSTRMTETKNINRSLSELTNVILALLQKQDHIPYRNSKLTHLLMPSLGGNSKTLMFINVSPFQDCFQESVKSLRFAASVNSCKMTKAKRNRYLNNSVANSSTQSNNSGSFDK | soluble
7 | MGSDKIHHHHHHMVKIAVLGLGRVGLRAAYNLASRGFDVLGLDASNDAVSRARSLGLEARLYDVEGRKAGEYLRGQRVVAAFIALPYPVASRAVAHLSSAGIPVVVASIKPLRIDPGVVRAPILTEVGVSPGLSNVILYSMAAETGGGVSARVYVGSFGAREDGLLSHASTWRVEEMLEQYVTPAKLIQDGSEAVADPLDPSLWMEYSDPEHGVLECFPSQGLAGFISRRGSLFKELMECSLRRRGHLKVVLTMRGLGLLDSTPLKVSGCIVRPFDMAVKLVETRYPPDVGDVAVFTVEARRGGRWETLARASLRHGGGWSASSKMVGGASSAFAEVFAAEGLSEEEPGIIYPEDLYELGLAEKLLSLLPSHGVSLEVG | not soluble
8 | MNINPFANVSLQDYLEIVQIVDSTFPIGSFNHSFGMENYLREDTVTDDKGYEEWQEAYLASQFKYGEGLVIKLVYDAMVTDNIDQVWYYDKVLTVSTQARETRQGTKMIAKQMLRLIQRLHAIPVLDDYQSKIRKGVAFGNPAIVFALYVFNKGLGCNEAIALYGYSVISTMVQNAVRAIPLGQFAGQEIVLRSFSQLEKMTQEIQELDASYLGANTPGLELAQMKHETQVFRLFMSLEHHHHHH | not soluble
9 | MLISIESKEHYRILCIDGGSTDQTIPMIERLQRELKHISLIQLQNASIATCINKGLMDIKMTDPHDSDAFMVINPTSIVLPGKLDRLTAAFKNNDNIDMVIGQRAYNYHGEWKLKSADEFIKDNRIVTLTEQPDLLSMMSFDGKLFSAKFAELQCDETLANTYNHAILVKAMQKATDIHLVSQMIVGDNDIDTHATSNDEDFNRYIIEIMKIRQRVMEMLLLPEQRLLYSDMVDRILFNNSLKYYMNEHPAVTHTTIQLVKDYIMSMQHSDYVSQNMFDIINTVEFIGENWDREIYELWRQTLIQVGINRPTYKKFLIQLKGRKFAHRTKSMLKRLEHHHHHH | not soluble
10 | MSLRPFATKAEADAAVADIRARGRLIVGLDIGSNLFSFRDPITGEITGFDVDIAGEVARDIFGVPSHVEYRILSAAERVTALQKSQVDIVVKTMSITCERRKLVNFSTVYLDANQRILAPRDSPITKVSDLSGKRVCVARGTTSLRRIREIAPPPVIVSVVNWADCLVALQQREIDAVSTDDTILAGLVEEDPYLHIVGPDMADQPYGVGINLDNTGLVRFVNGTLERIRNDGTWNTLYRKWLTVLGEGHHHHHH | soluble
11 | GHMSRRYWQLDVFAERPLTGNGLAVFDDASALDDAAMQAWTRELRQFESIFLLPGDDPRAFRARIFTLEEELPFAGHPLLGAAALLHHLRGGDNEQHWTLHLASKSVALRSVRAGSGFYAEMDQGRAEFGATPDAGTCRWFAEAFSLSANDLSGHPPRVVSTGLPYLLLPVTAEALGRARQVNDLQEALDKLGAAFVYLLDVDGREGRTWDNLGLVEDVATGSAAGPVAAYLVEYGLAARGEPFVLHQGRFLERPSRLDVQVATDGSVRVGGHVQLLARAELLTSAGS | soluble
12 | LTRFFGDFFLDIEVKLADVAMMYGLNLGYELQDKTLSNIVEEQLGSTPVLGDQFEWQGLQWVIADVVDHQVTKVGLRLPNEEEEGEEED | not soluble
